For this test, the target named is 메소텔린 (MIA PaCa2-MSLN 세포에 과발현) (UniProt Q13421). As to the kind of experiment: flow cytometry on MIA PaCa2-MSLN cells; 1 μg scFv, anti-6xHis tag detection. For orientation: A flow cytometer gives signals particle by particle.

Substitutions are numbered along the chain they refer to.

B1: C2G4 scFv 단백질 (scFv)
scFv: EVQLLESGGGLVQPGGSLRLSCAASGFTFSNYAMSWVRQAPGKGLEWVSGIPPDSGSKYYADSVRGRFTVSRDNSKNTLYLQMNSLRAEDTAVYYCAKNMLSFDYWGQGTLVTVSSGGGGSGGGGSGGGGSQSVLTQPPSASGTPGQRVTISCTGSSSNIGSNAVSWYQQLPGTAPKLLIYYNSKRPSGVPDRFSGSKSGTSASLAISGLRSEDEADYYCGSWDPSLNGYVFGGGTKVTVLG
B1 came in with a percent of cells bound of over 68%.

B2: MS501 scFv 단백질 (scFv)
scFv: EVQLLESGGGLVQPGGSLRLSCAASGFTFSNYAMSWVRQAPGKGLEWVSGIYPDSGSTYYADSVKGRFTISRDNSKNTLYLQMNSLRAEDTAVYYCARNIYTFDYWGQGTLVTVSSGGGGSGGGGSGGGGSQSVLTQPPSASGTPGQRVTISCSGSSSNIGSNAVSWYQQLPGTAPKLLIYYNNQRPSGVPDRFSGSKSGTSASLAISGLRSEDEADYYCGSWDSSLSGYVFGGGTKLTVLG
For B2, the percent of cells bound was over 68%.

B3: MS503 scFv 단백질 (scFv)
scFv: B2 scFv with G50S, D54G, S55D, R98K, I100A, Y101F, N184S, Q185H, S222T
The molecule B3 came in with a percent of cells bound of over 68%.

The values above are taken from KR20200090598A.
